This passage reports Kd results from PMC6416295.

Data set [1] has as its system HlyU (Vibrio vulnificus MO6-24/O). Briefly: EMSA. The conditions noted are these: 10 mM Tris-Cl pH 7.5, 50 mM KCl, 5 mM MgCl2, 5% glycerol, 0.1 ug poly(dI-dC) in 20 ul, 5 nM DNA, 25 C, 0.5 h; 6% native PAGE.
The test system is the same in data set [2]. Nature of the data set: EMSA. The conditions noted are these: 10 mM Tris-Cl pH 7.5, 50 mM KCl, 5 mM MgCl2, 5% glycerol, 0.1 ug poly(dI-dC) in 20 ul, 5 nM DNA, 25 C, 0.5 h; 6% native PAGE. The source holds these as a separate data set.

PrtxA 264-bp: the results for the Kd in data set [1] and in data set [2] were 25.2 nM and 54.8 nM, respectively.
